{
  "source": "paper PMC10707181",
  "about": "“Neuronal Scaffold Protein ARMS Interacts with Synaptotagmin-4 C2AB through the Ankyrin Repeat Domain with an Unexpected Mode” (International Journal of Molecular Sciences, 2023)",
  "parents": {"B1": {"name": "Syt4 132–425 [human] / ARMS ankyrin repeats 1–11 (R1-11, residues 1–365) [rat] (parent)", "chain 1": "MSVLISQSVINYVEEENIPALKALLEKCKDVDERNECGQTPLMLAAEQGNVEIVKELLKNGANCNLEDLDNWTALISASKEGHIHIVEELLKSGASLEHRDMGGWTALMWACYKGRTDVVELLLSHGANPSVTGLYSVYPIIWAAGRGHADIVHLLLQNGAKVNCSDKYGTTPLVWAARKGHLECVKHLLAMGADVDQEGANSMTALIVAVKGGYTQSVKEILKRNPNVNLTDKDGNTALMIASKEGHIEIVQDLLDAGTYVNIPDRSGDTVLIGAVRGGHVEIVRALLQKYADIDIRGQDNKTALYWAVEKGNATMVRDILQCNPDTEICTKDGETPLIKATKMRNIEVVELLLDKGAKVSAVD", "chain 2": "ESVSPESLKSSTSLTSEEKQEKLGTLFFSLEYNFERKAFVVNIKEARGLPAMDEQSMTSDPYIKMTILPEKKHKVKTRVLRKTLDPAFDETFTFYGIPYTQIQELALHFTILSFDRFSRDDIIGEVLIPLSGIELSEGKMLMNREIIKRNVRKSSGRGELLISLCYQSTTNTLTVVVLKARHLPKSDVSGLSDPYVKVNLYHAKKRISKKKTHVKKCTPNAVFNELFVFDIPCEGLEDISVEFLVLDSERGSRNEVIGQLVLGAAAEGTGGEHWKEICDYPRRQIAKWHVLCDG"}},
  "data": [
    {"variants_of": "B1", "test": "ITC", "settings": "with ARMS ankyrin repeats 1–11 (R1-11, residues 1–365) [rat]", "values": [
      {"variant": "chain 2 ESVSPESLKSSTSLTSEEKQEKLGTLFFSLEYNFERKAFVVNIKEARGLPAMDEQSMTSDPYIKMTILPEKKHKVKTRVLRKTLDPAFDETFTFYGIPYTQIQELALHFTILSFDRFSRDDIIGEVLIPLSGIELSEGKMLMNREIIAANVAKSSGRGELLISLCYQSTTNTLTVVVLKARHLPKSDVSGLSDPYVKVNLYHAKKRISKKKTHVKKCTPNAVFNELFVFDIPCEGLEDISVEFLVLDSERGSRNEVIGQLVLGAAAEGTGGEHWKEICDYPRRQIAKWHVLCDG", "note": "[chain 2 K148A R149A R152A]", "ratio to parent": 1.6},
      {"variant": "chain 2 ESVSPESLKSSTSLTSEEKQEKLGTLFFSLEYNFERKAFVVNIKEARGLPAMDEQSMTSDPYIKMTILPEKKHKVKTRVLRKTLDPAFDETFTFYGIPYTQIQELALHFTILSFDRFSRDDIIGEVLIPLSGIELSEGKMLMNREIIKRNVRASSGRGELLISLCYQSTTNTLTVVVLKARHLPKSDVSGLSDPYVKVNLYHAKKRISKKKTHVKKCTPNAVFNELFVFDIPCEGLEDISVEFLVLDSERGSRNEVIGQLVLGAAAEGTGGEHWKEICDYPRRQIAKWHVLCDG", "note": "[chain 2 K153A]", "ratio to parent": 0.3},
      {"variant": "chain 2 ESVSPESLKSSTSLTSEEKQEKLGTLFFSLEYNFERKAFVVNIKEARGLPAMDEQSMTSDPYIKMTILPEKKHKVKTRVLRKTLDPAFDETFTFYGIPYTQIQELALHFTILSFDRFSRDDIIGEVLIPLSGIELSEGKMLMNREIIKRNVAASSGRGELLISLCYQSTTNTLTVVVLKARHLPKSDVSGLSDPYVKVNLYHAKKRISKKKTHVKKCTPNAVFNELFVFDIPCEGLEDISVEFLVLDSERGSRNEVIGQLVLGAAAEGTGGEHWKEICDYPRRQIAKWHVLCDG", "note": "[chain 2 R152A K153A]", "ratio to parent": 0.3},
      {"variant": "chain 2 ESVSPESLKSSTSLTSEEKQEKLGTLFFSLEYNFERKAFVVNIKEARGLPAMDEQSMTSDPYIKMTILPEKKHKVKTRVLRKTLDPAFDETFTFYGIPYTQIQELALHFTILSFDRFSRDDIIGEVLIPLSGIELSEGKMLMNREIIKRNVAKSSGRGELLISLCYQSTTNTLTVVVLKARHLPKSDVSGLSDPYVKVNLYHAKKRISKKKTHVKKCTPNAVFNELFVFDIPCEGLEDISVEFLVLDSERGSRNEVIGQLVLGAAAEGTGGEHWKEICDYPRRQIAKWHVLCDG", "note": "[chain 2 R152A]", "ratio to parent": 0.3},
      {"variant": "chain 2 ESVSPESLKSSTSLTSEEKQEKLGTLFFSLEYNFERKAFVVNIKEARGLPAMDEQSMTSDPYIKMTILPEKKHKVKTRVLRKTLDPAFDETFTFYGIPYTQIQELALHFTILSFDRFSRDDIIGEVLIPLSGIELSEGKMLMNREIIKRNVRKSSGAGELLISLCYQSTTNTLTVVVLKARHLPKSDVSGLSDPYVKVNLYHAKKRISKKKTHVKKCTPNAVFNELFVFDIPCEGLEDISVEFLVLDSERGSRNEVIGQLVLGAAAEGTGGEHWKEICDYPRRQIAKWHVLCDG", "note": "[chain 2 R157A]", "ratio to parent": 0.8},
      {"variant": "chain 2 ESVSPESLKSSTSLTSEEKQEKLGTLFFSLEYNFERKAFVVNIKEARGLPAMDEQSMTSDPYIKMTILPEKKHKVKTRVLRKTLDPAFDETFTFYGIPYTQIQELALHFTILSFDRFSRDDIIGEVLIPLSGIELSEGKMLMNREIIAANVRKSSGRGELLISLCYQSTTNTLTVVVLKARHLPKSDVSGLSDPYVKVNLYHAKKRISKKKTHVKKCTPNAVFNELFVFDIPCEGLEDISVEFLVLDSERGSRNEVIGQLVLGAAAEGTGGEHWKEICDYPRRQIAKWHVLCDG", "note": "[chain 2 K148A R149A]", "ratio to parent": 0.8},
      {"variant": "chain 2 ESVSPESLKSSTSLTSEEKQEKLGTLFFSLEYNFERKAFVVNIKEARGLPAMDEASMTSDPYIKMTILPEKKHKVKTRVLRKTLDPAFDETFTFYGIPYTQIQELALHFTILSFDRFSRDDIIGEVLIPLSGIELSEGKMLMNREIIKRNVRKSSGRGELLISLCYQSTTNTLTVVVLKARHLPKSDVSGLSDPYVKVNLYHAKKRISKKKTHVKKCTPNAVFNELFVFDIPCEGLEDISVEFLVLDSERGSRNEVIGQLVLGAAAEGTGGEHWKEICDYPRRQIAKWHVLCDG", "note": "[chain 2 Q55A]", "ratio to parent": 0.3}
    ]},
    {"variants_of": "B1", "test": "ITC", "settings": "with Syt4 132–425 [human]", "values": [
      {"variant": "chain 1 MSVLISQSVINYVEEENIPALKALLEKCKDVDERNECGQTPLMLAAEQGNVEIVKELLKNGANCNLEDLDNWTALISASKEGHIHIVEELLKSGASLEHRDMGGWTALMWACYKGRTDVVELLLSHGANPSVTGLYSVYPIIWAAGRGHADIVHLLLQNGAKVNCSDKYGTTPLVWAARAGHLECVKHLLAMGADVDQEGANSMTALIVAVKGGYTQSVKEILKRNPNVNLTDKDGNTALMIASKEGHIEIVQDLLDAGTYVNIPDRSGDTVLIGAVRGGHVEIVRALLQKYADIDIRGQDNKTALYWAVEKGNATMVRDILQCNPDTEICTKDGETPLIKATKMRNIEVVELLLDKGAKVSAVD", "note": "[chain 1 K180A]", "ratio to parent": 0.9}
    ]}
  ]
}
